# Reference: the supplement of paper PMC9112550, “Optimization of the antimicrobial peptide Bac7 by deep mutational scanning” (BMC Biology, 2022)
# Test system: Escherichia coli TOP10
# Test: shrunken log2 fold change of peptide-encoding DNA abundance (4.5 h post-induction vs induction); higher = less antimicrobial activity (less host growth inhibition)
# Conditions: time post-induction: 4.5 h; library: site-saturation at positions 5, 18, 19, 20
# 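Further: peptides expressed intracellularly from a pBAD plasmid library in pooled LB shake-flask culture, induced with 0.3% L-arabinose, DNA abundance read by NGS, three biological replicates, DESeq2 with apeglm shrinkage.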
row,Sequence,shrunken log2 fold change
1,RRIRMRPPRLPRPRPRPWHPPRP,-0.297
2,RRIRMRPPRLPRPRPRPWIKPRP,0.101
3,RRIRMRPPRLPRPRPRPWMGPRP,-0.33
4,RRIRMRPPRLPRPRPRPWPKPRP,0.543
5,RRIRMRPPRLPRPRPRPWPLPRP,0.0935
6,RRIRMRPPRLPRPRPRPWPRPRP,1.25
7,RRIRMRPPRLPRPRPRPWPVPRP,0.287
8,RRIRMRPPRLPRPRPRPWRDPRP,0.518
9,RRIRMRPPRLPRPRPRPWTAPRP,-0.0195
10,RRIRMRPPRLPRPRPRPWVNPRP,0.0668
11,RRIRMRPPRLPRPRPRPWVVPRP,0.346
12,RRIRMRPPRLPRPRPRPWWEPRP,-0.425
13,RRIRMRPPRLPRPRPRPWWPPRP,0.445
14,RRIRMRPPRLPRPRPRPWYPPRP,-0.786
15,RRIRMRPPRLPRPRPRPYATPRP,-0.0602
16,RRIRMRPPRLPRPRPRPYCEPRP,-0.34
17,RRIRMRPPRLPRPRPRPYCGPRP,-0.0255
18,RRIRMRPPRLPRPRPRPYFGPRP,-0.138
19,RRIRMRPPRLPRPRPRPYFLPRP,-0.542
20,RRIRMRPPRLPRPRPRPYHEPRP,-0.391
21,RRIRMRPPRLPRPRPRPYIAPRP,-0.038
22,RRIRMRPPRLPRPRPRPYICPRP,-0.201
23,RRIRMRPPRLPRPRPRPYIPPRP,-1.28
24,RRIRMRPPRLPRPRPRPYLYPRP,-0.0828
25,RRIRMRPPRLPRPRPRPYMAPRP,-0.162

row,Sequence,shrunken log2 fold change
1,RRIRMRPPRLPRPRPRPYMRPRP,0.0391
2,RRIRMRPPRLPRPRPRPYMVPRP,-0.0313
3,RRIRMRPPRLPRPRPRPYNDPRP,0.0185
4,RRIRMRPPRLPRPRPRPYNQPRP,-0.486
5,RRIRMRPPRLPRPRPRPYNRPRP,-0.336
6,RRIRMRPPRLPRPRPRPYPDPRP,-0.0456
7,RRIRMRPPRLPRPRPRPYQTPRP,-0.0231
8,RRIRMRPPRLPRPRPRPYRAPRP,-0.691
9,RRIRMRPPRLPRPRPRPYRDPRP,-0.018
10,RRIRMRPPRLPRPRPRPYSGPRP,-0.00278
11,RRIRMRPPRLPRPRPRPYSIPRP,-0.0122
12,RRIRMRPPRLPRPRPRPYSYPRP,0.0871
13,RRIRMRPPRLPRPRPRPYTCPRP,8.02e-05
14,RRIRMRPPRLPRPRPRPYVTPRP,-0.298
15,RRIRMRPPRLPRPRPRPYYMPRP,-0.0189
16,RRIRMRPPRLPRPRPRPYYRPRP,0.0143
17,RRIRNRPPRLPRPRPRPAAHPRP,-0.00675
18,RRIRNRPPRLPRPRPRPAASPRP,0.739
19,RRIRNRPPRLPRPRPRPACPPRP,0.307
20,RRIRNRPPRLPRPRPRPACWPRP,0.449
21,RRIRNRPPRLPRPRPRPADEPRP,-0.00151
22,RRIRNRPPRLPRPRPRPADHPRP,-0.0958
23,RRIRNRPPRLPRPRPRPADTPRP,0.124
24,RRIRNRPPRLPRPRPRPAEWPRP,0.412
25,RRIRNRPPRLPRPRPRPAFPPRP,-0.138

row,Sequence,shrunken log2 fold change
1,RRIRNRPPRLPRPRPRPAGHPRP,0.133
2,RRIRNRPPRLPRPRPRPAGRPRP,0.486
3,RRIRNRPPRLPRPRPRPAGVPRP,0.329
4,RRIRNRPPRLPRPRPRPAHGPRP,0.047
5,RRIRNRPPRLPRPRPRPAHPPRP,0.307
6,RRIRNRPPRLPRPRPRPAHSPRP,0.111
7,RRIRNRPPRLPRPRPRPAIHPRP,0.0529
8,RRIRNRPPRLPRPRPRPAKDPRP,0.0231
9,RRIRNRPPRLPRPRPRPAKHPRP,0.027
10,RRIRNRPPRLPRPRPRPAKYPRP,-0.134
11,RRIRNRPPRLPRPRPRPAMNPRP,-0.000576
12,RRIRNRPPRLPRPRPRPAPLPRP,0.196
13,RRIRNRPPRLPRPRPRPARRPRP,0.294
14,RRIRNRPPRLPRPRPRPARVPRP,0.574
15,RRIRNRPPRLPRPRPRPASGPRP,0.247
16,RRIRNRPPRLPRPRPRPASIPRP,-0.0365
17,RRIRNRPPRLPRPRPRPASMPRP,-0.064
18,RRIRNRPPRLPRPRPRPATCPRP,-0.00428
19,RRIRNRPPRLPRPRPRPATFPRP,-0.441
20,RRIRNRPPRLPRPRPRPATLPRP,-0.365
21,RRIRNRPPRLPRPRPRPAVGPRP,0.543
22,RRIRNRPPRLPRPRPRPAYCPRP,-0.0951
23,RRIRNRPPRLPRPRPRPAYEPRP,-0.0122
24,RRIRNRPPRLPRPRPRPCAWPRP,-0.147
25,RRIRNRPPRLPRPRPRPCCAPRP,-0.0874

row,Sequence,shrunken log2 fold change
1,RRIRNRPPRLPRPRPRPCDHPRP,-0.0208
2,RRIRNRPPRLPRPRPRPCEAPRP,-0.18
3,RRIRNRPPRLPRPRPRPCGLPRP,0.0441
4,RRIRNRPPRLPRPRPRPCIWPRP,0.131
5,RRIRNRPPRLPRPRPRPCKKPRP,-0.0371
6,RRIRNRPPRLPRPRPRPCKQPRP,-0.0218
7,RRIRNRPPRLPRPRPRPCMHPRP,-0.0807
8,RRIRNRPPRLPRPRPRPCMRPRP,0.0891
9,RRIRNRPPRLPRPRPRPCPFPRP,-0.208
10,RRIRNRPPRLPRPRPRPCPVPRP,-0.438
11,RRIRNRPPRLPRPRPRPCQAPRP,-0.112
12,RRIRNRPPRLPRPRPRPCQIPRP,-0.0177
13,RRIRNRPPRLPRPRPRPCSSPRP,-0.0135
14,RRIRNRPPRLPRPRPRPCTKPRP,0.00474
15,RRIRNRPPRLPRPRPRPCVCPRP,-0.00201
16,RRIRNRPPRLPRPRPRPCWDPRP,0.125
17,RRIRNRPPRLPRPRPRPCWVPRP,-0.0518
18,RRIRNRPPRLPRPRPRPDCKPRP,-0.0698
19,RRIRNRPPRLPRPRPRPDCWPRP,-0.0568
20,RRIRNRPPRLPRPRPRPDDEPRP,-0.00101
21,RRIRNRPPRLPRPRPRPDDLPRP,-0.000687
22,RRIRNRPPRLPRPRPRPDDQPRP,0.0463
23,RRIRNRPPRLPRPRPRPDFNPRP,-0.186
24,RRIRNRPPRLPRPRPRPDGFPRP,-0.104
25,RRIRNRPPRLPRPRPRPDGLPRP,0.038

row,Sequence,shrunken log2 fold change
1,RRIRNRPPRLPRPRPRPDGNPRP,0.102
2,RRIRNRPPRLPRPRPRPDGQPRP,-0.0321
3,RRIRNRPPRLPRPRPRPDHAPRP,-0.0118
4,RRIRNRPPRLPRPRPRPDHLPRP,-0.0163
5,RRIRNRPPRLPRPRPRPDHMPRP,-0.00141
6,RRIRNRPPRLPRPRPRPDIAPRP,-0.0447
7,RRIRNRPPRLPRPRPRPDIDPRP,-0.0391
8,RRIRNRPPRLPRPRPRPDILPRP,-0.156
9,RRIRNRPPRLPRPRPRPDMFPRP,-0.00166
10,RRIRNRPPRLPRPRPRPDNQPRP,-0.323
11,RRIRNRPPRLPRPRPRPDPGPRP,0.0569
12,RRIRNRPPRLPRPRPRPDRVPRP,-0.275
13,RRIRNRPPRLPRPRPRPDSHPRP,-0.0854
14,RRIRNRPPRLPRPRPRPDSYPRP,-0.054
15,RRIRNRPPRLPRPRPRPDTSPRP,-0.0648
16,RRIRNRPPRLPRPRPRPDVRPRP,-0.104
17,RRIRNRPPRLPRPRPRPDWSPRP,-0.256
18,RRIRNRPPRLPRPRPRPEAIPRP,0.113
19,RRIRNRPPRLPRPRPRPECIPRP,2.1
20,RRIRNRPPRLPRPRPRPEFSPRP,0.0268
21,RRIRNRPPRLPRPRPRPEGCPRP,-0.0205
22,RRIRNRPPRLPRPRPRPEGMPRP,0.225
23,RRIRNRPPRLPRPRPRPEGWPRP,0.68
24,RRIRNRPPRLPRPRPRPEGYPRP,-0.169
25,RRIRNRPPRLPRPRPRPEIEPRP,0.0339

row,Sequence,shrunken log2 fold change
1,RRIRNRPPRLPRPRPRPEIGPRP,0.195
2,RRIRNRPPRLPRPRPRPEKTPRP,-0.0226
3,RRIRNRPPRLPRPRPRPELSPRP,0.0211
4,RRIRNRPPRLPRPRPRPEMQPRP,-0.00804
5,RRIRNRPPRLPRPRPRPENCPRP,0.0518
6,RRIRNRPPRLPRPRPRPENWPRP,0.0185
7,RRIRNRPPRLPRPRPRPEPEPRP,0.0273
8,RRIRNRPPRLPRPRPRPEPFPRP,-0.0904
9,RRIRNRPPRLPRPRPRPEPLPRP,0.00741
10,RRIRNRPPRLPRPRPRPERYPRP,0.0573
11,RRIRNRPPRLPRPRPRPESHPRP,-0.0363
12,RRIRNRPPRLPRPRPRPETAPRP,0.536
13,RRIRNRPPRLPRPRPRPETRPRP,0.254
14,RRIRNRPPRLPRPRPRPEVVPRP,-0.252
15,RRIRNRPPRLPRPRPRPEWSPRP,0.406
16,RRIRNRPPRLPRPRPRPFCQPRP,-0.677
17,RRIRNRPPRLPRPRPRPFDFPRP,-0.161
18,RRIRNRPPRLPRPRPRPFDMPRP,-0.0725
19,RRIRNRPPRLPRPRPRPFDWPRP,0.0435
20,RRIRNRPPRLPRPRPRPFECPRP,-0.000687
21,RRIRNRPPRLPRPRPRPFFLPRP,-0.255
22,RRIRNRPPRLPRPRPRPFGRPRP,-0.0535
23,RRIRNRPPRLPRPRPRPFISPRP,-0.0484
24,RRIRNRPPRLPRPRPRPFKWPRP,-0.224
25,RRIRNRPPRLPRPRPRPFLHPRP,-0.351
